Experimental data: publication PMC4838378 (Nucleic Acids Research, 2016)
Like-named read-outs stand apart in the source and are kept apart here.

Key:
cross-linking = molecular target: the molecule itself; assay: cross-linking
[1] = molecular target: T1, HpDnaB replicative helicase (Helicobacter pylori, UniProt O25916 1-488); assay: pull-down
T1 sequence: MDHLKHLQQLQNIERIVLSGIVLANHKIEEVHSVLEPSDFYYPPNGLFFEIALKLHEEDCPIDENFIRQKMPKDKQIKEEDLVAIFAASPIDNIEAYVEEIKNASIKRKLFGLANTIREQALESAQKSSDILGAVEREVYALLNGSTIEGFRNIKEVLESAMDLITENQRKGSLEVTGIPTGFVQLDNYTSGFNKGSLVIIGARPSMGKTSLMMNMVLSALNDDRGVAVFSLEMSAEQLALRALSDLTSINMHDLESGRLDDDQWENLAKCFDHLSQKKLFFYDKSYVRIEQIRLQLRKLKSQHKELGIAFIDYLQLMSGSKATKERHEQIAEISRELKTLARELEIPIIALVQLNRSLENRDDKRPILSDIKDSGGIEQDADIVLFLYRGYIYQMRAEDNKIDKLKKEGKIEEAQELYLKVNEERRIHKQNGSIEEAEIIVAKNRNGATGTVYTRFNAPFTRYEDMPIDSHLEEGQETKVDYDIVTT

[2] = molecular target: T2, HpDnaB replicative helicase;Hp0897 (Helicobacter pylori;Helicobacter pylori …, UniProt O25916;O25557 1-488;1-208, |); assay: EMSA
T2 sequence 1: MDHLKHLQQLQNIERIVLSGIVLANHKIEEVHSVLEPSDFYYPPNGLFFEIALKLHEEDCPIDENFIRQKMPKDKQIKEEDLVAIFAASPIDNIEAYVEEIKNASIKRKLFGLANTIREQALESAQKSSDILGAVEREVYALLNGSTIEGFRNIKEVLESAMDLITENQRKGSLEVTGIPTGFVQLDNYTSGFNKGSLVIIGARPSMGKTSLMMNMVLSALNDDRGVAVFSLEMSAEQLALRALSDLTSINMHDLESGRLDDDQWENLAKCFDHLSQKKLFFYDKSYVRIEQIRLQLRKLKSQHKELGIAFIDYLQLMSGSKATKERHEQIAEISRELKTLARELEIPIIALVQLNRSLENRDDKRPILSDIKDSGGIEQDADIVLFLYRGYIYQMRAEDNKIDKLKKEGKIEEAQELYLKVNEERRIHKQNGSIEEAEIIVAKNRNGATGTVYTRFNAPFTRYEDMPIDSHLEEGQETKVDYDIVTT
T2 sequence 2: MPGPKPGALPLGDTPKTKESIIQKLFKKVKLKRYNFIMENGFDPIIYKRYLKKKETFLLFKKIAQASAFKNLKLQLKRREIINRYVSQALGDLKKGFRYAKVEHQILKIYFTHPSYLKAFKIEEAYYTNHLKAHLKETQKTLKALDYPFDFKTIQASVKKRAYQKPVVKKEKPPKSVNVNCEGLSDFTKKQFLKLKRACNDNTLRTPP

Hp0897 = molecular target: T3, Hp0897 (Helicobacter pylori 26695, UniProt O25557 1-208); assay: EMSA
T3 sequence: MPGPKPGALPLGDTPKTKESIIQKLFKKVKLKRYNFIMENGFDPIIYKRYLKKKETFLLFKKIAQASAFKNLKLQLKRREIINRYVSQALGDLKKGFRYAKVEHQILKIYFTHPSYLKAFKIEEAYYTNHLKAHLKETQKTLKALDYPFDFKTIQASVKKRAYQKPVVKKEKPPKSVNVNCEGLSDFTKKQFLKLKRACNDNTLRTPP

[3] = molecular target: T2, HpDnaB replicative helicase;Hp0897; assay: EMSA; remark: listed apart in the source

B1: His6-Hp0897 (natural protein, Helicobacter pylori strain 26695, UniProt O25557 1-208, looked up)
chain: MPGPKPGALPLGDTPKTKESIIQKLFKKVKLKRYNFIMENGFDPIIYKRYLKKKETFLLFKKIAQASAFKNLKLQLKRREIINRYVSQALGDLKKGFRYAKVEHQILKIYFTHPSYLKAFKIEEAYYTNHLKAHLKETQKTLKALDYPFDFKTIQASVKKRAYQKPVVKKEKPPKSVNVNCEGLSDFTKKQFLKLKRACNDNTLRTPP
stoichiometry N (cross-linking): 2

B2: biotinylated 70-nt ssDNA-1 (ssDNA)
DNA: CTGCCACACACCACCAAAGCTAACTGACAGCAGAATCCAGATGGATCATTTAAAGCATTTGCAACAATTG
modifications: 5' biotin
binding result [1]: binds

B3: 70NZ ssDNA-1 (ssDNA)
DNA: CTGCCACACACCACCAAAGCTAACTGACAGCAGAATCCAGATGGATCATTTAAAGCATTTGCAACAATTG
binding result [2]: binds | binding result (Hp0897): binds

B4: 70-nt forked DNA (ssDNA-1/ssDNA-2) (dsDNA)
DNA 1: CTGCCACACACCACCAAAGCTAACTGACAGCAGAATCCAGATGGATCATTTAAAGCATTTGCAACAATTG
DNA 2: CAATTGTTGCAAATGCTTTAAATGATCCATGACCTAAGACGACAGTCAATCGAACCACCACACACCGTC
binding result [3]: binds
